# Assay results: patent US20110189095A1 (University of Texas, published 2011)
# Bridge positions count the residues as written; N and C are the ends. Ends that are not written are not given here.
# B1: synthetic PSI-derived peptide NSTFLQEGMPTSA (SEQ ID NO:23) (peptide)
# peptide: NSTFLQEGMPTSA
# notes: also called β1 integrin PSI-derived peptide
# B2: IL11 receptor of DU145 cells (receptor, human, UniProt Q14626 23-422, looked up)
# chain: SSPCPQAWGPPGVQYGQPGRSVKLCCPGVTAGDPVSWFRDGEPKLLQGPDSGLGHELVLAQADSTDEGTYICQTLDGALGGTVTLQLGYPPARPVVSCQAADYENFSCTWSPSQISGLPTRYLTSYRKKTVLGADSQRRSPSTGPWPCPQDPLGAARCVVHGAEFWSQYRINVTEVNPLGASTRLLDVSLQSILRPDPPQGLRVESVPGYPRRLRASWTYPASWPCQPHFLLKFRLQYRPAQHPAWSTVEPAGLEEVITDAVAGLPHAVRVSARDFLDAGTWSTWSPEAWGTPSTGTIPKEIPAWGQLHTQPEVEPQVDSPAPPRPSLQPHPRLLDHRDSVEQVAVLASLGILSFLGLVAGALALGLWLRLRRGGKDGSPKPGFLASVIPVDRRPGAPNL
# notes: whole, on cells; Unrelated transmembrane receptor, control of the co-immunoprecipitation
# B3: β3 integrin of DU145 cells (receptor, human, UniProt P05106 27-788, looked up)
# chain: GPNICTTRGVSSCQQCLAVSPMCAWCSDEALPLGSPRCDLKENLLKDNCAPESIEFPVSEARVLEDRPLSDKGSGDSSQVTQVSPQRIALRLRPDDSKNFSIQVRQVEDYPVDIYYLMDLSYSMKDDLWSIQNLGTKLATQMRKLTSNLRIGFGAFVDKPVSPYMYISPPEALENPCYDMKTTCLPMFGYKHVLTLTDQVTRFNEEVKKQSVSRNRDAPEGGFDAIMQATVCDEKIGWRNDASHLLVFTTDAKTHIALDGRLAGIVQPNDGQCHVGSDNHYSASTTMDYPSLGLMTEKLSQKNINLIFAVTENVVNLYQNYSELIPGTTVGVLSMDSSNVLQLIVDAYGKIRSKVELEVRDLPEELSLSFNATCLNNEVIPGLKSCMGLKIGDTVSFSIEAKVRGCPQEKEKSFTIKPVGFKDSLIVQVTFDCDCACQAQAEPNSHRCNNGNGTFECGVCRCGPGWLGSQCECSEEDYRPSQQDECSPREGQPVCSQRGECLCGQCVCHSSDFGKITGKYCECDDFSCVRYKGEMCSGHGQCSCGDCLCDSDWTGYYCNCTTRTDTCMSSNGLLCSGRGKCECGSCVCIQPGSYGDTCEKCPTCPDACTFKKECVECKKFDRGALHDENTCNRYCRDEIESVKELKDTGKDAVNCTYKNEDDCVVRFQYYEDSSGKSILYVVEEPECPKGPDILVVLLSVMGAILLIGLAALLIWKLLITIHDRKEFAKFEEERARAKWDTANNPLYKEATSTFTNITYRGT
# notes: whole, on cells; Control of the co-immunoprecipitation; also called other integrins (anti-β3)
# B4: CRKL of DU145 cells (cell extract, membrane fraction, cell surface or serum-free condition medium) (other)
# chain: MSSARFDSSDRSAWYMGPVSRQEAQTRLQGQRHGMFLVRDSSTCPGDYVLSVSENSRVSHYIINSLPNRRFKIGDQEFDHLPALLEFYKIHYLDTTTLIEPAPRYPSPPMGSVSAPNLPTAEDNLEYVRTLYDFPGNDAEDLPFKKGEILVIIEKPEEQWWSARNKDGRVGMIPVPYVEKLVRSSPHGKHGNRNSNSYGIPEPAHAYAQPQTTTPLPAVSGSPGAAITPLPSTQNGPVFAKAIQKRVPCAYDKTALALEVGDIVKVTRMNINGQWEGEVNGRKGLFPFTHVKIFDPQNPDENE
# notes: Native protein from human DU145 prostate cancer cells; also called secreted CRKL; extracellular CRKL
# B5: recombinant His-tag CRKL (rCRKL) (other)
# chain: B4 chain
# notes: Open reading frame of full-length CRKL cDNA cloned in pET28a, expressed in BL21; also called recombinant CRKL; rCKRL protein; not shown: His-tag from pET28a vector
# Experiments:
# [1] = target: B5; assay: ELISA, His-tag protein on coated synthetic peptide (FIG. 3A)
# Procedure: (§1) Synthetic tumor-homing peptide ([…]; SEQ ID NO:1) or PSI-derived peptide ([…]; SEQ ID NO:23) were coated on microtiter plates followed by blocking, and washing. The following recombinant His-tag proteins were added to the coated plates: rCRKL, rCRKL-SH2 domain, rCRKL-SH3 (N) domain, and rCRKL-SH3 (C) domain. An unrelated control protein (α2-Heremans-Schmid glycoprotein; AHSG) served as a negative control. The mixtures were incubated, washed, and labeled with the appropriate antibodies. Secondary antibodies conjugated to horse-radish peroxidase (HRP) were added followed by adding TMB substrate (Calbiochem), and analyzed by an automated ELISA reader (Bio-Tek). To determine the inhibitory activity of the tumor-homing peptide, the PSI-derived peptide, or the phage clone displaying the corresponding tumor-homing peptide were incubated with the rCRKL-SH3 (C) domain. Unrelated cyclic peptide sequences and insertless phage (fd-tet) served as negative controls. The admixtures were incubated and added to wells coated with the tumor-homing peptide. After incubation, the wells were washed, labeled with the appropriate antibodies, and processed as above.
# [2] = target: B5; assay: ELISA, His-tag protein on coated synthetic peptide
# Procedure: as §1
# [3] = target: T1, β1 integrin of DU145 cells (membrane fraction / cell surface) (human, UniProt P05556 21-798); assay: reciprocal co-immunoprecipitation, DU145 membrane fractions
# T1 construct: Native β1 chain of human DU145 cells
# T1 sequence (P05556 21-798 limits assumed): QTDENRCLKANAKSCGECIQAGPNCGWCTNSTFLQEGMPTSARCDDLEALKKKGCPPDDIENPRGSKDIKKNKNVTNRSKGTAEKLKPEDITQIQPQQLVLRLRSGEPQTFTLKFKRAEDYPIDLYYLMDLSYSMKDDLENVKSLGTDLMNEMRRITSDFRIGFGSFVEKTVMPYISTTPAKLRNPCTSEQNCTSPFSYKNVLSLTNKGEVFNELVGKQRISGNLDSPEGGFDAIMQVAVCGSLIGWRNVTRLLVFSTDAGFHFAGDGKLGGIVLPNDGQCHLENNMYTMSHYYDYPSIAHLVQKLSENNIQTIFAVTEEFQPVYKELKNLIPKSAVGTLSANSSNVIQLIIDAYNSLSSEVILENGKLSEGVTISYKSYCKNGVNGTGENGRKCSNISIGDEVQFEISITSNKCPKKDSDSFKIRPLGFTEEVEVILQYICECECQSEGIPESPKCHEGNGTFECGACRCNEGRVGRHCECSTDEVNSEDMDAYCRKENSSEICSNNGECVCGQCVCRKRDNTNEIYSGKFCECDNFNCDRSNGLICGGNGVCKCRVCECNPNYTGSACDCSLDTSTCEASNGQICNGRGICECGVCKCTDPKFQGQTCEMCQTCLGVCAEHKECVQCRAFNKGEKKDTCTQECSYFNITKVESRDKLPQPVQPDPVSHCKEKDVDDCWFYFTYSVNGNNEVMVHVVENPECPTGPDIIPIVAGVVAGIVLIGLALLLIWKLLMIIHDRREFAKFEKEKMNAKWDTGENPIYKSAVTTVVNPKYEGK
# [4] = target: B2; assay: as above
# [5] = target: B3; assay: as above
# [6] = target: T2, β5 integrin of DU145 cells (human, UniProt P18084 24-799); assay: as above
# T2 construct: whole, on cells; Control of the co-immunoprecipitation; also called other integrins (anti-β5)
# T2 sequence (P18084 24-799): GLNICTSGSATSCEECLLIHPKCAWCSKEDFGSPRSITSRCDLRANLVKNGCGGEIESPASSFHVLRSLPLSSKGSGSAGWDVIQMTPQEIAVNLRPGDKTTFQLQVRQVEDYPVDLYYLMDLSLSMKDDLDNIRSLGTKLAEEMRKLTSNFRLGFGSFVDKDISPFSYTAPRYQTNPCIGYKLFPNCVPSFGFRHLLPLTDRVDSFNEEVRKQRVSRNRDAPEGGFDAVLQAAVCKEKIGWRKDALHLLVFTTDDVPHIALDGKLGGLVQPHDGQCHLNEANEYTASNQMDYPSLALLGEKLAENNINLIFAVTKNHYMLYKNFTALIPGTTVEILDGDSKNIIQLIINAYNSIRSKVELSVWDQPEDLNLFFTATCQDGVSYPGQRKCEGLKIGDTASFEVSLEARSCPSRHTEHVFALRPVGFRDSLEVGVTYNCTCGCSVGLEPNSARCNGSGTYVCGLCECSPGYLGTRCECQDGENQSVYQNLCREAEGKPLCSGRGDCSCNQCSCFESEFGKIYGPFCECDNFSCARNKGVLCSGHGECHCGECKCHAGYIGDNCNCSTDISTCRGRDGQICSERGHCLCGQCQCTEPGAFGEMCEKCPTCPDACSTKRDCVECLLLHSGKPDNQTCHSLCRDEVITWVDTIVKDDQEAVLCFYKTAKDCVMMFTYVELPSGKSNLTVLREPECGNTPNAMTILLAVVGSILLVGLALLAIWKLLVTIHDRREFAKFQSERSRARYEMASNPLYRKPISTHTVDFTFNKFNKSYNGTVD
# [7] = target: T3, αvβ3 integrin (Chemicon) (UniProt P06756 31-1048; P05106 27-788); assay: CRKL on wells coated with integrin at 1 µg/well, anti-CRKL detection (FIG. 5)
# T3 construct: Bought protein coated at 1 µg/well; also called control integrin
# T3 sequence (P06756 31-1048, one chain of several): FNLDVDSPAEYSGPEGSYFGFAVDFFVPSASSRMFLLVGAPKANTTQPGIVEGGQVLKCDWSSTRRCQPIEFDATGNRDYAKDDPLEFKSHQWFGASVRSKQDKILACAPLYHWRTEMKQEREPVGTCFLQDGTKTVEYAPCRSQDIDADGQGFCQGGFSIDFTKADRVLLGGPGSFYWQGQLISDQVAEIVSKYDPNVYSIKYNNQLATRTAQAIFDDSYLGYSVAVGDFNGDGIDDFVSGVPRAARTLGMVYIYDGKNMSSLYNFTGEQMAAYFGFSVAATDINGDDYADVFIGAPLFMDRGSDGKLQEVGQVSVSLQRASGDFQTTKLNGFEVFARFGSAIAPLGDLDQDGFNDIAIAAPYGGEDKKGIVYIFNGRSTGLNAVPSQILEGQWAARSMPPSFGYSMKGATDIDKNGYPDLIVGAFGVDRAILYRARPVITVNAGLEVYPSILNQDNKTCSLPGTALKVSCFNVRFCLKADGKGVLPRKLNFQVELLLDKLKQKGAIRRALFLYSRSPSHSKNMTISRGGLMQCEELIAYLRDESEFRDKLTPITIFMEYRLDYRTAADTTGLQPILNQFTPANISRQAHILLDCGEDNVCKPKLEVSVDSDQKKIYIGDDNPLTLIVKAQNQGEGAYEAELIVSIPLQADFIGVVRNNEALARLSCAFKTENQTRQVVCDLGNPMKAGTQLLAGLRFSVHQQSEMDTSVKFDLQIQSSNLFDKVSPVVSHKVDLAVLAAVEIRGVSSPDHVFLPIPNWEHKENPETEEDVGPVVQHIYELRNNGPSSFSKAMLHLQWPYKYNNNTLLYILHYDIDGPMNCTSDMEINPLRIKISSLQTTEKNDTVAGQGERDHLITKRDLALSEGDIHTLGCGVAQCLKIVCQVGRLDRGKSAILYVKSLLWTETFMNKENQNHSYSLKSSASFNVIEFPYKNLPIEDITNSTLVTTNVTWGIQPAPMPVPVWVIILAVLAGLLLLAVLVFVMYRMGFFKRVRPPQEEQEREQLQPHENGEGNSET
# Procedure: (§2) Phage binding assays on purified proteins were carried out as described (Giordano et al. 2001). Recombinant proteins were coated on microtiter wells as previous described (Cardo-Vila et al., 2003; Smith and Scott, 1993). Briefly, proteins were immobilized on microtiter wells overnight at 4° C. 50 μl of 1 μg/ml in PBS. Wells were washed twice with PBS, blocked with PBS containing 3% BSA for 2 hours at room temperature, and incubated with 10⁹ T.U. wild-type tumor-homing phage ([…]; SEQ ID NO:1), scrambled phage ([…] (SEQ ID NO:26), […] (SEQ ID NO:27), […] (SEQ ID NO:29), […] (SEQ ID NO:30)), mutant phage ([…] (SEQ ID NO:25), […] (SEQ ID NO:28)), PSI-derived cyclic phage ([…]; SEQ ID NO:23) or fd-tet phage in 50 μl of PBS containing 1.5% BSA. After 1 hour at room temperature, wells were washed ten times with PBS and phage were recovered by bacterial infection. ELISA with polyclonal anti-CKRL confirmed the presence and concentration of the CKRL recombinant proteins on the wells. To test the binding of the tumor-homing phage to SH3 containing proteins, microtiter-wells were coated at 4° C. overnight with 250 μg/ml of recombinant gst-SH3 domains (CKRL-D1, CKRL-D2, grb2-D1, grb2-D2, Lyn, src; Pronomics), rCKRL protein, and negative controls gst or BSA. […] After 3 hours, binding of CKRL to integrins was detected by using an anti-CKRL antibody followed by an HRP-conjugated anti-rabbit IgG. […]
# [8] = target: T4, αvβ5 integrin (Chemicon) (UniProt P06756 31-1048; P18084 24-799); assay: as above
# T4 construct: Bought protein coated at 1 µg/well; also called control integrin
# T4 sequence (P06756 31-1048, chain 1 of 2): as the sequence (P06756 31-1048, one chain of several) above
# T4 sequence (P18084 24-799, chain 2 of 2): as the sequence (P18084 24-799) above
# Procedure: as §2
binder,measurement,setting,value
"YRCTLNSPFFWEDMTHECHA (disulfide 3-18 (inferred), also called PSI domain-mimic peptide) [synthetic tumor-homing peptide YRCTLNSPFFWEDMTHECHA (SEQ ID NO:1)]",binding result,[1],binds
B1,binding result,[2],binds
B2,binding result,[3],no binding
B3,binding result,[3],no binding
B4,binding result,[3],binds
same,binding result,[4],no binding
same,binding result,[5],no binding
same,binding result,[6],no binding
B5,binding result,[7],no binding
same,binding result,[8],no binding
